Laboratory results as given in publication doi:10.1101/2020.09.19.304535.

Target: GmPUB13(252-630), purified protein (soybean (Glycine max))
Assay: ITC

Avr1d, purified protein (ITC and gel filtration) (natural protein)
Kd: 89 nM
